Tested on: GST-topo I
Sequence (chain, as listed by the source): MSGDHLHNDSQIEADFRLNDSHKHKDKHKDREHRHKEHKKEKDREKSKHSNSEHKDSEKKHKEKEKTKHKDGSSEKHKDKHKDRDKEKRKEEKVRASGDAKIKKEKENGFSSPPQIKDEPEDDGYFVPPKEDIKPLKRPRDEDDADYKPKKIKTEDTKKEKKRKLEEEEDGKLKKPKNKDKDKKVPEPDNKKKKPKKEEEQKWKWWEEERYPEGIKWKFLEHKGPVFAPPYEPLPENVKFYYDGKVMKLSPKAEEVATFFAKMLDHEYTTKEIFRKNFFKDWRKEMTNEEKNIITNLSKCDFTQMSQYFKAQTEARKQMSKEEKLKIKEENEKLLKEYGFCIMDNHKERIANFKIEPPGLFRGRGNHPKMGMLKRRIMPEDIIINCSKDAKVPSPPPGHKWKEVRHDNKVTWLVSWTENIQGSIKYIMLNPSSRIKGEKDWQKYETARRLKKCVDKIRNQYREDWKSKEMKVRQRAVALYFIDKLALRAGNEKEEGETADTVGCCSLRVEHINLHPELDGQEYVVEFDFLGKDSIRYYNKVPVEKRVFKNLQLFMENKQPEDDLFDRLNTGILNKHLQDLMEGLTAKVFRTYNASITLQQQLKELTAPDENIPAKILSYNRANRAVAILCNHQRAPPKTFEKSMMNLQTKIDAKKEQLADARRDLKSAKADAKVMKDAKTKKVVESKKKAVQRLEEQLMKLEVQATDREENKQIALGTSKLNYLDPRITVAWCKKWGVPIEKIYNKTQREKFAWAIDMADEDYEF

## BRCA1/BARD1 (E3)
  in vitro ubiquitination, immunoblot with anti-ubiquitin: topo I is ubiquitinated by BRCA1

Reference: patent publication US20150285801
